Measurements from the supplement of paper PMC10065799, “High-throughput profiling of sequence recognition by tyrosine kinases and SH2 domains using bacterial peptide display” (eLife, 2023).

What was measured:
[1] = target: SHP2-C SH2; assay: SH2 binding enrichment of the phosphorylated peptide, bacterial display (enrichment ratio); higher = better substrate or ligand; peptides without Tyr show the background
[2] = target: Grb2 SH2 (UniProt P62993); assay: as above
[3] = target: c-Src SH2; assay: as above
[4] = target: FGFR3 (UniProt P22607); assay: phosphorylation enrichment, bacterial display (enrichment ratio); higher = better substrate or ligand; peptides without Tyr show the background
[5] = test system: c-Src; assay: as above
[6] = target: EPHB2 (UniProt P29323); assay: as above
Sequence of EPHB2 (P29323 whole entry, looked up): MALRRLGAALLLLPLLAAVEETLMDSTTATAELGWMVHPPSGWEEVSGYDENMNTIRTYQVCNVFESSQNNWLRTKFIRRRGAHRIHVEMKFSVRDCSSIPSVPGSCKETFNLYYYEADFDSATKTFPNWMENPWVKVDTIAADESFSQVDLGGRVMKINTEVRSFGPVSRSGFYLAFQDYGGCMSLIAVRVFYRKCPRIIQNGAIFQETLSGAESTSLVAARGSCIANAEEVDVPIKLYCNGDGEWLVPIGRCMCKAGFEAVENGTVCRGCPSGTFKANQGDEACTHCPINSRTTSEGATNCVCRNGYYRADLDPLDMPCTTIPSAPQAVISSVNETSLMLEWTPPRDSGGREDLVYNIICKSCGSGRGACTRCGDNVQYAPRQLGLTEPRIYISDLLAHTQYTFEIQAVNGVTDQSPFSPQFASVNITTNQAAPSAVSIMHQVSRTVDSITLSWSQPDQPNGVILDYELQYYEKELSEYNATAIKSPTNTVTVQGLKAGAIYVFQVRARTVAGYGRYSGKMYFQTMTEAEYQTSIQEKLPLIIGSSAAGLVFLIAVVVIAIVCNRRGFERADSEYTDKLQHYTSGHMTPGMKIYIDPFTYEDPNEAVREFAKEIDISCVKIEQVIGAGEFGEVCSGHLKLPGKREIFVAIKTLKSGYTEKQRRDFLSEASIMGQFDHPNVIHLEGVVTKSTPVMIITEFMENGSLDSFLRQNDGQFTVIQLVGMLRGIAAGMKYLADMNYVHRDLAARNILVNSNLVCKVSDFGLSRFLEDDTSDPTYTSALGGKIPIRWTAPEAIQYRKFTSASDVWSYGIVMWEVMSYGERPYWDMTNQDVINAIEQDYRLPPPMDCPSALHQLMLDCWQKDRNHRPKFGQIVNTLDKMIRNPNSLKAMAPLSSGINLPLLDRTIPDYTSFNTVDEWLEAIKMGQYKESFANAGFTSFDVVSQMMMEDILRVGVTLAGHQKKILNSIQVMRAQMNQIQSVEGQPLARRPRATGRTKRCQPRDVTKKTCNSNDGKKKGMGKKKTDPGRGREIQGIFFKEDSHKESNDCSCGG

[7] = test system: c-Abl (mouse); assay: as above
[8] = target: EPHB1 (UniProt P54762); assay: as above
Sequence of EPHB1 (P54762 whole entry, looked up): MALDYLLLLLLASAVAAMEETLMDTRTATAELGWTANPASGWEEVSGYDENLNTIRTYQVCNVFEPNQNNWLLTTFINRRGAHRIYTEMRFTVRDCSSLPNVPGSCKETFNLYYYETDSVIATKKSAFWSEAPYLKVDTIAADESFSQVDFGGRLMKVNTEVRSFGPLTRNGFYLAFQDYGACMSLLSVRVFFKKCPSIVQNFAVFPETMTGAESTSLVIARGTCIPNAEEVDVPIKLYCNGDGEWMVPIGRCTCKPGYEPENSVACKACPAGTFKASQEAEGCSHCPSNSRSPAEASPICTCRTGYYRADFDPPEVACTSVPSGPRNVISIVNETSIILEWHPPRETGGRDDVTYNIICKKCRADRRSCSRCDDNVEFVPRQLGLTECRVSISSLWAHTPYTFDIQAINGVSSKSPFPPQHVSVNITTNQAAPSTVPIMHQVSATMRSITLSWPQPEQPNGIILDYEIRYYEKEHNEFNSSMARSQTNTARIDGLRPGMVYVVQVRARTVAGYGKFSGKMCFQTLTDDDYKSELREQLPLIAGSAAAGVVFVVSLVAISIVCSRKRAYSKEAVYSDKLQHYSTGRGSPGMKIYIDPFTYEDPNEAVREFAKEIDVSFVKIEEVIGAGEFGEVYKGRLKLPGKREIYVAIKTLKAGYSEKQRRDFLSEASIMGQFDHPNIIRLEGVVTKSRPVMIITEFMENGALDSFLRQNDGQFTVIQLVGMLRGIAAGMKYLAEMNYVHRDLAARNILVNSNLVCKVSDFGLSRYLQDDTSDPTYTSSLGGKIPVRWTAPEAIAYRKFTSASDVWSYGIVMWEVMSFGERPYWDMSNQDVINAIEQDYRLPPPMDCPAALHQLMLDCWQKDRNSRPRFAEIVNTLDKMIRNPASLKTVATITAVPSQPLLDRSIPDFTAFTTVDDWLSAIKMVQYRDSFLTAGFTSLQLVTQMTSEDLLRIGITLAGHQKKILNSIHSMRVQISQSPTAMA

[9] = test system: AncSZ; assay: as above
[10] = target: Hck (UniProt P08631); assay: as above
Sequence of Hck (P08631 whole entry, looked up): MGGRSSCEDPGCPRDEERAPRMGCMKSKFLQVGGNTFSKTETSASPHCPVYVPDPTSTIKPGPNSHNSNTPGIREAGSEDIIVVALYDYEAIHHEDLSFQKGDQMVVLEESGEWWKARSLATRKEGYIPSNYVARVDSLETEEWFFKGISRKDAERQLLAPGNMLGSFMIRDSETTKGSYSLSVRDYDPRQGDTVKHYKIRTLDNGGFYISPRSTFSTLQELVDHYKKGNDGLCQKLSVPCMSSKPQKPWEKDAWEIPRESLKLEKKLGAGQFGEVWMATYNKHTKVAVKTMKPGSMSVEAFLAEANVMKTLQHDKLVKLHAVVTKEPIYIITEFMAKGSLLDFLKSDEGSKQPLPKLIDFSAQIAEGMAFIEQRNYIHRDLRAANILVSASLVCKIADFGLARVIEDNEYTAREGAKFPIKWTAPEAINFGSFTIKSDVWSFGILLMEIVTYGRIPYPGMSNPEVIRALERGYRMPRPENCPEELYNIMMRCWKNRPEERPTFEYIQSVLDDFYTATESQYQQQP

[11] = target: MERTK (UniProt Q12866); assay: as above
Sequence of MERTK (Q12866 whole entry, looked up): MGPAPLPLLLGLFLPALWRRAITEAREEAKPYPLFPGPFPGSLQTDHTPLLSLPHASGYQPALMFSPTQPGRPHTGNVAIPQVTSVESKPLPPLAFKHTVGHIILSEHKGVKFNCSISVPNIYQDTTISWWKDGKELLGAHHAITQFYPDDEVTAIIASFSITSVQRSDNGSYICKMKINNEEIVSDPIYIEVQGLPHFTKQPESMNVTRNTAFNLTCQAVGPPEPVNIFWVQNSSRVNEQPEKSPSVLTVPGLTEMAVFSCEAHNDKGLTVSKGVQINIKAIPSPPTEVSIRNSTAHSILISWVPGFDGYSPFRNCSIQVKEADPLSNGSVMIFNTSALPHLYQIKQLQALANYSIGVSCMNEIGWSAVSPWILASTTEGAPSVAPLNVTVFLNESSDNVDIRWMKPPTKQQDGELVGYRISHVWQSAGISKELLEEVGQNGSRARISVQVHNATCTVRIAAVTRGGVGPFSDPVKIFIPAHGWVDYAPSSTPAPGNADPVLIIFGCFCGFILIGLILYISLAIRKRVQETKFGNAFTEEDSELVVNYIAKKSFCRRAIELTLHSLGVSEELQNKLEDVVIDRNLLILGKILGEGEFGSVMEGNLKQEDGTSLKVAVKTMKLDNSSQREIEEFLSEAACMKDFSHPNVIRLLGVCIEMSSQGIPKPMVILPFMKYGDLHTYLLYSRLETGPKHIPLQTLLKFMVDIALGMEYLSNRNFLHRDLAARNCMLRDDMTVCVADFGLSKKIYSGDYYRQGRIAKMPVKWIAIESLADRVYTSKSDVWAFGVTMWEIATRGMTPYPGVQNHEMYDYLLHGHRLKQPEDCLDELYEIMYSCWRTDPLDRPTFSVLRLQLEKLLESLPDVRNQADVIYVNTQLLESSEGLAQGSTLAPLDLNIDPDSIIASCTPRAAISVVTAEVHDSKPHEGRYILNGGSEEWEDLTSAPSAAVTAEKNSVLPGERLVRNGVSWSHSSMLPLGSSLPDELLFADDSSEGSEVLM

[12] = target: FGFR1 (UniProt P11362); assay: as above
[13] = target: Fyn (UniProt P06241); assay: as above
Sequence of Fyn (P06241 whole entry, looked up): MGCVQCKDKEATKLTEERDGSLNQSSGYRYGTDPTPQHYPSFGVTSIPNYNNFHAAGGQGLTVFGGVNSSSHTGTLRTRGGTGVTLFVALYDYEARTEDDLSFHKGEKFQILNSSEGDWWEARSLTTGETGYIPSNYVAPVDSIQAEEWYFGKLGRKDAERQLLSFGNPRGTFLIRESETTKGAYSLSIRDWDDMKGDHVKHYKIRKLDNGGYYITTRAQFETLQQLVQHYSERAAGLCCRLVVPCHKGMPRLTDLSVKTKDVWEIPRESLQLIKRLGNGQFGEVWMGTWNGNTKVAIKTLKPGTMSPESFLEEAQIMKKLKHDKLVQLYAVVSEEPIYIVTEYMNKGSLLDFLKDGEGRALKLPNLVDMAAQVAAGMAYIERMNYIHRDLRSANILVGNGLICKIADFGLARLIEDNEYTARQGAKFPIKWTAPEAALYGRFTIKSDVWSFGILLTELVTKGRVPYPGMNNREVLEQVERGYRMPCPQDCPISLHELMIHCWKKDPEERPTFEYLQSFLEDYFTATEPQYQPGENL

[14] = target: Jak2 (UniProt O60674); assay: as above
[15] = test system: Fer (mouse); assay: as above
[16] = target: Fes (UniProt P07332); assay: as above
Sequence of Fes (P07332 whole entry, looked up, the tested form may be a part): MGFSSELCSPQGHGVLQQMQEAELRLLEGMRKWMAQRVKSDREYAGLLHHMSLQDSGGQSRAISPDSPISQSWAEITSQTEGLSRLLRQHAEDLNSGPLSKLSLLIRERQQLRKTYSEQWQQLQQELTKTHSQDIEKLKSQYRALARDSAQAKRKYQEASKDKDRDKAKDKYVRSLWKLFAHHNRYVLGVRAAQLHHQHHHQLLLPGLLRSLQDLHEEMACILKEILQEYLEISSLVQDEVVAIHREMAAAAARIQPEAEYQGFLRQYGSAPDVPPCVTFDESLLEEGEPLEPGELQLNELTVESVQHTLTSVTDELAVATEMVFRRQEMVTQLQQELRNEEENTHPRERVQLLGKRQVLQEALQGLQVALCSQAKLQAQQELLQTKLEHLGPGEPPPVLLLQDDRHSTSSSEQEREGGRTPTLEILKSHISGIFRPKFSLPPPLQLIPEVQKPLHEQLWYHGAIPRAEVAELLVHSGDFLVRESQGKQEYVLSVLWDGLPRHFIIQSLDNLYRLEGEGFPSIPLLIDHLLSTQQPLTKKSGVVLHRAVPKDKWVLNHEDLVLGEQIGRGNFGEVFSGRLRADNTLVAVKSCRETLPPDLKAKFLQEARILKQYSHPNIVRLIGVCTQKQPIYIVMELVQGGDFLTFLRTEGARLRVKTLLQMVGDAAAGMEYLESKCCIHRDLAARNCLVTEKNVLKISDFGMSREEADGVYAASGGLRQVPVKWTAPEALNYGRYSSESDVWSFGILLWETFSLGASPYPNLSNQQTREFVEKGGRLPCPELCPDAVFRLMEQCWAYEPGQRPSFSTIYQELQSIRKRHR
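For SH2 binding enrichment of the phosphorylated peptide, bacterial display in this document: peptide library displayed on the E. coli surface as eCPX fusions, selected cells deep-sequenced, score is each peptide's frequency after selection divided by its frequency in the input.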
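For phosphorylation enrichment, bacterial display in this document: 11-residue human phosphosite peptides and single-mutation variants displayed on the E. coli surface, counted by deep sequencing, each peptide's frequency after selection divided by its frequency in the unselected input library; frequency after pTyr selection over input frequency; kinase dosed for 20-30% of maximal phosphorylation in three min.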

Row | SH2 binding enrichment [1] | SH2 binding enrichment [2] | SH2 binding enrichment [3] | Sequence | phosphorylation enrichment [4] | phosphorylation enrichment [5] | phosphorylation enrichment [6] | phosphorylation enrichment [7] | phosphorylation enrichment [8] | phosphorylation enrichment [9] | phosphorylation enrichment [10] | phosphorylation enrichment [11] | phosphorylation enrichment [12] | phosphorylation enrichment [13] | phosphorylation enrichment [14] | phosphorylation enrichment [15] | phosphorylation enrichment [16]
1 | 0.627 | 0.709 | 0.606 | SVVVPYEPPVV [TP53_Y220_E224V] | 0.61 | 0.437 | 0.574 | 0.659 | 0.518 | 1 | 0.437 | 0.397 | 0.446 | 0.453 | 0.731 | 0.457 | 0.921
2 | 0.82 | 1.1 | 0.519 | RGRDSYGGPPR [RBMX_Y190] | 0.563 | 0.8 | 0.613 | 0.934 | 0.427 | 0.744 | 0.64 | 0.632 | 0.604 | 0.721 | 0.557 | 0.589 | 0.734
3 | 0.715 | 0.91 | 0.583 | KFANSYIMEPL [TCTE3_Y87_R88I] | 0.629 | 0.712 | 0.531 | 0.436 | 0.39 | 0.853 | 0.432 | 0.37 | 0.524 | 0.529 | 0.476 | 0.498 | 0.606
4 | 0.605 | 0.949 | 0.895 | CTTIHDNFMCN [TP53_Y234_Y234D_YF] | 0.592 | 0.436 | 0.512 | 0.631 | 0.544 | 0.841 | 0.54 | 0.37 | 0.516 | 0.441 | 0.849 | 0.465 | 0.898
5 | 0.767 | 0.78 | 3.37 | LRRQDYQEILD [SLC35G2_Y403_K400R] | 0.783 | 0.376 | 0.898 | 0.621 | 0.838 | 1.35 | 0.352 | 0.622 | 0.727 | 0.492 | 1.06 | 0.509 | 1.58

The next lines start with the sequence.

Row | Sequence | SH2 binding enrichment [1] | SH2 binding enrichment [2] | SH2 binding enrichment [3] | phosphorylation enrichment [4] | phosphorylation enrichment [5] | phosphorylation enrichment [6] | phosphorylation enrichment [7] | phosphorylation enrichment [8] | phosphorylation enrichment [9] | phosphorylation enrichment [10] | phosphorylation enrichment [11] | phosphorylation enrichment [12] | phosphorylation enrichment [13] | phosphorylation enrichment [14] | phosphorylation enrichment [15] | phosphorylation enrichment [16]
6 | FSNKLHFQLEQ [PDPR_Y109_Y109H_YF] | 0.938 | 0.917 | 0.482 | 0.509 | 0.491 | 0.509 | 0.709 | 0.473 | 0.976 | 0.398 | 0.51 | 0.482 | 0.471 | 0.889 | 0.43 | 1.18
7 | RVYRDYVLKSA [HTATIP2_Y111_D108Y] | 0.612 | 0.959 | 0.481 | 0.825 | 0.794 | 0.76 | 0.624 | 1.01 | 1.07 | 0.841 | 0.693 | 0.833 | 0.645 | 0.836 | 0.493 | 1.05
8 | MSFDRYMAICH [OR2A5_Y123_YF] | 0.688 | 0.829 | 0.859 | 0.68 | 0.497 | 0.669 | 0.69 | 0.868 | 0.897 | 0.527 | 0.498 | 0.567 | 0.494 | 0.878 | 0.557 | 1.08
9 | TEFIQYVRRKN [MAX_Y73_M74V_YF] | 0.609 | 0.863 | 0.492 | 0.653 | 0.473 | 0.551 | 0.435 | 0.48 | 0.66 | 0.559 | 0.639 | 0.74 | 0.675 | 0.521 | 0.483 | 0.626
10 | INPIIYAFVGE [CCR5_Y297] | 0.6 | 0.776 | 0.46 | 2.75 | 4.84 | 9.51 | 10.4 | 10.7 | 1.17 | 6.19 | 7.72 | 3.48 | 6.13 | 1.03 | 6.77 | 2.02
11 | KLRMEYLSLMH [NCKIPSD_Y660] | 1.97 | 2.08 | 1.44 | 0.737 | 0.445 | 0.609 | 0.8 | 0.524 | 0.857 | 0.515 | 0.419 | 0.52 | 0.438 | 0.976 | 0.455 | 0.991
12 | NYGTNYRVGSS [CPO_Y278_K273N] | 0.639 | 0.924 | 0.55 | 0.389 | 0.425 | 0.681 | 0.372 | 0.493 | 0.458 | 0.465 | 0.368 | 0.357 | 0.463 | 0.441 | 0.719 | 0.503
13 | EYITRYIASLK [PSMA7_Y110] | 1.46 | 1.05 | 0.57 | 0.415 | 0.477 | 0.416 | 0.569 | 0.498 | 0.708 | 0.51 | 0.499 | 0.456 | 0.416 | 0.526 | 0.414 | 0.717
14 | DEYLEHRRIVG [FAM221A_Y20_Y20H] | 0.611 | 0.918 | 0.484 | 0.611 | 0.347 | 0.679 | 0.434 | 1.95 | 0.764 | 0.489 | 0.38 | 0.6 | 0.399 | 0.526 | 0.506 | 0.883
15 | PTATSYTPNLA [GABRA1_Y375] | 0.604 | 0.699 | 0.729 | 0.607 | 0.306 | 0.314 | 0.505 | 0.291 | 0.568 | 0.477 | 0.357 | 0.459 | 0.643 | 0.349 | 0.571 | 0.521
16 | ESDGAYIHRMQ [CCDC137_Y125] | 0.656 | 0.857 | 0.541 | 0.514 | 0.403 | 0.493 | 0.703 | 0.408 | 0.726 | 0.378 | 0.406 | 0.419 | 0.365 | 0.824 | 0.414 | 0.873
17 | AKFLGYPPPEI [KDR_Y357_YF] | 0.619 | 0.794 | 0.476 | 0.609 | 0.436 | 0.413 | 0.627 | 0.474 | 0.773 | 0.488 | 0.412 | 0.499 | 0.426 | 0.565 | 0.459 | 0.902
